The target in the series is His-AvrXa27 (Xanthomonas oryzae pv. oryzae, UniProt Q4QS99 1-1136). The series can be described thus: EMSA; […]; buffer, […], pH and temperature not stated. The note with it: protein: recombinant; tags: His (pET-30a); label: Cy5; blunt. For orientation: A gel shift assay detects complexes by their altered migration in electrophoresis.

B1: Xa13p-14 (dsDNA)
DNA 1: ATCTCCCCCTACTCTACAT
DNA 2: ATGTAGAGTAGGGGGAGAT
Regarding B1, the binding result was “no binding”.

These data come from publication PMC10873877.
